Laboratory results as given in publication doi:10.64898/2025.12.10.693404.

Legend:
His6-SUMO-TDP-43 [1] = target: T1, His6-SUMO-TDP-43 (UniProt Q13148 1-414); assay: fluorescence anisotropy
His6-SUMO-TDP-43 [2] = target: T1, His6-SUMO-TDP-43; assay: fluorescence anisotropy; remark: listed apart in the source

T1 sequence (Q13148 whole entry): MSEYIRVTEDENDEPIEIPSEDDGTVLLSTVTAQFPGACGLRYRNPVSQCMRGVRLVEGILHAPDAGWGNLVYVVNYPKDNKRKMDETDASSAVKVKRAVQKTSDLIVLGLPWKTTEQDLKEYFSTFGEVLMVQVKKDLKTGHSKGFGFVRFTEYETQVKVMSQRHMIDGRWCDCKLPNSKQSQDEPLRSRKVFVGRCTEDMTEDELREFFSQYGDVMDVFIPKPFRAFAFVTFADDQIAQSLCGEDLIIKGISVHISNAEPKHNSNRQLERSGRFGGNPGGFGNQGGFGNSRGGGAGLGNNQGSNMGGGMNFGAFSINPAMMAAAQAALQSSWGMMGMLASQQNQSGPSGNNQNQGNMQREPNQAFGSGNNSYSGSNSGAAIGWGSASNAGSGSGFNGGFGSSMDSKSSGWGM

Binder	binding result (His6-SUMO-TDP-43 [1])	Kd (His6-SUMO-TDP-43 [2])
ACACACAC (ssDNA) [(AC)4]	no binding	
TGTGTGTG (ssDNA) [(TG)4]		~1800 nM
